Data on two molecules can be found in publication PMC2628355, “The inhibition of assembly of HIV-1 virus-like particles by 3-O-(3',3'-dimethylsuccinyl) betulinic acid (DSB) is counteracted by Vif and requires its Zinc-binding domain” (Virology Journal, 2008).

Data set [1] concerns the target VifsubCΔ170, triple mutant of HIV-1 Vif (subA+subB and deletion of the 23 C-terminal residues) (HIV-1). Nature of the data set: SDS-PAGE and immunoblotting (dimer band); whole cell lysates or VLP of baculovirus-infected Sf9 cells on SDS-denaturing 12% polyacrylamide gels, blotted with anti-His or anti-Vif antibody; a band at twice the monomer's mass. For orientation: A western blot detects proteins with antibodies after separation by electrophoresis.

Data set [2] deals with the molecule itself. Described as above.

As usually defined, the stoichiometry N is the number of molecules, sites or subunits per partner or assembly. For “VifsubCΔ170, triple mutant of HIV-1 Vif (subA+subB and deletion of the 23 C-terminal residues) (domain or fragment)”, in data set [1], the stoichiometry N came to 2.

B1: oligohistidine-tagged HIV-1 Vpr protein (natural protein, UniProt P69726 1-96, looked up)
chain: MEQAPEDQGPQREPHNEWTLELLEELKNEAVRHFPRIWLHGLGQHIYETYGDTWAGVEAIIRILQQLLFIHFRIGCRHSRIGVTRQRRARNGASRS
notes: HIV-1 Vpr; also called His-tagged Vpr; source: Sf9 cells infected with recombinant baculovirus AcMNPV-Vpr (obtained from Eric Cohen); in cells and in extracellular VLP
Consider B1, for which the “stoichiometry N” value in data set [2] worked out at 2.
